Assay results from patent US10246503B2, “Method of improving the pharmacokinetic profile of a therapeutic polypeptide and the use thereof” (BEIJING ANXINHUAIDE BIOTECH. CO., LTD, priority 2012, dated 2019).

Legend:
[1] = pharmacokinetics in SD rats, sandwich ELISA (Example 15); type: in vivo, SD (Sprague-Dawley) rats; conditions: intraperitoneal, 5 nmol/kg
Procedure: To evaluate the pharmacokinetics profiles for the GLP-1 containing fusion proteins generated using the method of the invention, we purified the recombinant fusion proteins of GLP-1-Fn8-COL18NC1, GLP1(A8G/G22E/R36G)-Fn8-p246-COL18NC1 and GLP1(A8G/G22E/R36G)-Fn8-p285-COL18NC1 in PBS buffer, pH 7.2. These fusion proteins were administered into SD (Sprague-Dawley) rats by intraperitoneal injections at the dose of 5 nmol/kg for animals, respectively. Blood samples were taken at various time points after injections such as 0-min, 30-min, 1-hour, 2-hour, 4-hour, 6-hour, 8-hour, 24-hour, 48-hour, 3-day, 4-day, 5-day, 6-day and 7-day. The serum samples were centrifuged and kept at −80° C. freezer.
The GLP-1 concentrations within the samples were examined by use of the sandwich ELISA method. The rabbit polyclonal antibody against human Fibronectin at the concentration of 3 ug/ml (Ab299, Abcam company) was coated on ELISA plate for 1 hour at room temperature. Then the plate was washed by PBST buffer three times and the wells were blocked by PBS with 10% FBS for 1 hour at room temperature. The plate was washed three times before the serum samples containing GLP-1 fusion proteins were added. The serum samples could be diluted to 20-10000 folds before use. The ELISA plate was incubated with the serum samples at room temperature for 1 hour and then washed by PBST buffer five times. Then mouse monoclonal against human GLP-1 peptide antibody (sc57510, Santa Cruz Biotechnology) at the concentration of 1 ug/ml in PBST buffer was added to the wells. The plate was washed extensively after incubation of 1 hour at room temperature. The secondary antibody, […] HRP conjugated antibody (Beijing ZSGB-Bio company, ZB 5301), was added into the wells and the color was developed using TMB (3,3′,5,5′-tetramethylbenzidine, BD Biosciences, Cat 555214). The plate reader (Bio-Rad microplate reader Model 680) was utilized to obtain the OD450 readings. This method has been calibrated using purified proteins first.
The pharmacokinetics parameters were obtained by using the WinNonlin software (Table 5).

SD rats [2] = assay: toxicity in SD rats; type: in vivo
Text: The toxicity of GLP1(A8G/G22E/R36G)-Fn8-p246-COL18NC1 in SD rats was also examined.

SD rats [3] = assay: Intraperitoneal glucose tolerance test (IPGTT) in SD rats; type: in vivo, SD (Sprague-Dawley) rats
Procedure: In this figure, GLP1(A8G/G22E/R36G)-Fn8-p246-COL18NC1 is labeled as p246. In FIG. 9a, the rats were injected with saline, GLP1(A8G/G22E/R36G)-Fn8-p246-COL18NC1 at the dose of 10_nmol/kg and 20_nmol/kg, respectively. 8 hours after the administrations of the fusion protein (and control), the IPGTT experiments were conducted. The three curves indicated the glucose levels in the IPGTT for rats that received negative control (saline), GLP1(A8G/G22E/R36G)-Fn8-p246-COL18NC1 at the doses of 10_nmol/kg and 20_nmol/kg, respectively. In FIG. 9b, the rats were injected with saline, GLP1(A8G/G22E/R36G)-Fn8-p246-COL18NC1 at the dose of 20 nmol/kg. 32 hours and 102 hours after the administrations of the fusion protein (and the control), the IPGTT experiments were conducted. The three curves indicated the glucose levels in the IPGTT for rats that 32 hours and 102 hours after administration of negative control (saline), GLP1(A8G/G22E/R36G)-Fn8-p246-COL18NC1 respectively.
To evaluate the efficacy of GLP1(A8G/G22E/R36G)-Fn8-p246-COL18NC1 to reduce the glucose level in animal models, we performed the Intraperitoneal glucose tolerance test (IPGTT) in SD rats. The fusion protein GLP1(A8G/G22E/R36G)-Fn8-p246-COL18NC1 was administered on SD (Sprague-Dawley) rats by intraperitoneal injections at the dose of 10 nmol/kg and 20 nmol/kg for animals, respectively. Glucose was injected into the animals with the dose of 2 g/kg at 8 hours, 32 hours and 100 hours after the injection of the fusion protein GLP1(A8G/G22E/R36G)-Fn8-p246-COL18NC1. Blood samples were taken at various time points after injections such as 0-min, 10-min, 20-min, 30-min, 60-min and 120-min. The glucose levels within the blood samples were measured using a Accu-Chek Performa blood glucose meter (Roche) immediately. In FIG. 9a, the rats were injected with GLP1(A8G/G22E/R36G)-Fn8-p246-COL18NC1 at the dose of 10 nmol/kg and 20 nmol/kg about 8 hours before the IPGTT experiments were conducted. […] In FIG. 9b, about 32 hours and 100 hours after the rats were injected with GLP1(A8G/G22E/R36G)-Fn8-p246-COL18NC1 at the dose of 20 nmol/kg, the IPGTT experiments were conducted.

B1: GLP1(A8G/G22E/R36G)-Fn8-p246-COL18NC1: GLP-1 mutant, Fn8, pCloud p246, COL18NC1 fusion; SEQ ID NO: 16 (protein)
chain: HGEGTFTSDVSSYLEEQAAKEFIAWLVKGGGSGGGSGGGSGGGSGGGSGSGGAVPPPTDLRFTNIGPDTMRVTWAPPPSIDLTNFLVRYSPVKNEEDVAELSISPSDNAVVLTNLLPGTEYVVSVSSVYEQHESTPLRGRQKTGGGGSGGGSGSGSESGSGGGSTSSGTGSETESPGSGSESGSGPSSAGSGSGSESGSGSGSSGPGSTGGSGSESGSGPGSSGTGGTATGSGSESGSGPGSSGPGSTGSGSGSESGSGSGSSGTGSTGGSGSESGSGPGSPRPGSTGTGSGSESGSGPGSSERGSAGGSGSESGSGTSESSASGSTGGSGSESGSGSESGSGSGSESGSGPESPGSGGSGSESGSGTSGSTGSGSESGSGGGSGGGSGGGASSGVRLWATRQAMLGQVHEVPEGWLIFVAEQEELYVRVQNGFRKVQLEARTPLPRG
[1]; Rats
  AUCall: 301.2 µg·h/mL
  CL/F: 2.03 mL/h/kg
  Cmax: 5730 ng/mL
  T½: 30.8 h
  Vss: 0.09023 L/kg
[1]; SD rats
  half life: 30.8 h
SD rats [2]; repeated doses of 5 nmol/kg every three days for four weeks
  unacceptable adverse effects such as significant weight loss and fever: did not induce unacceptable adverse effects
SD rats [2]; single dose of 30 nmol/kg
  unacceptable adverse effects such as significant weight loss and fever: did not induce unacceptable adverse effects
SD rats [3]; 10 nmol/kg intraperitoneal, about 8 hours before IPGTT, glucose 2 g/kg
  glucose level in IPGTT: can efficiently reduce the glucose level
SD rats [3]; 20 nmol/kg intraperitoneal, about 8 hours before IPGTT, glucose 2 g/kg
  glucose level in IPGTT: can efficiently reduce the glucose level
SD rats [3]; 20 nmol/kg, 100 hours after the injection
  glucose level in IPGTT: can still reduce the glucose level significantly
SD rats [3]; single dose 20 nmol/kg, IPGTT about 32 hours and 100 hours after injection
  glucose-reducing activity in IPGTT: can maintain its glucose-reducing activity in vivo for an extended period of time
